Experimental findings from paper PMC9618058, “A genetically encoded system for oxygen generation in living cells” (Proceedings of the National Academy of Sciences of the …, 2022) are described below.

Substrate in this data set: [O-][Cl+]O
Description: oxygen evolution in digitonin-permeabilised HeLa cells, optical oxygen meter, initial rates. Conditions: 20 mM HEPES pH 7.2, 125 mM KCl, 2 mM K2HPO4, 1 mM MgCl2, glutamate, malate, 0.01% digitonin, air-saturated, chlorite 10 μM to 1 mM. In kind it is biochemical, Nitrospira defluvii.

B1: FLAG-NdCld (Nitrospira defluvii) (protein)
chain: ADREKLLTESGVYGTFATFQMDHDWWDLPGESRVISVAEVKGLVEQWSGKILVESYLLRGLSDHADLMFRVHARTLSDTQQFLSAFMGTRLGRHLTSGGLLHGVSKKPTYVAGFPESMKTELQVNGESGSRPYAIVIPIKKDAEWWALDQEARTALMQEHTQAALPYLKTVKRKLYHSTGLDDVDFITYFETERLEDFHNLVRALQQVKEFRHNRRFGHPTLLGTMSPLDEILEKFAQ
notes: codon-optimised; N-terminal FLAG kept; expressed in HeLa cells; 29 kDa; runs at 248 kDa (dimer of pentamers)
Consider B1, for which the Km stood at 560 µM.
